In publication PMC10359594:
Where two headings read alike, the source gives them in different places.

Key:
SAMHD1 WT [1] = target: T1, SAMHD1 WT (Homo sapiens, UniProt Q9Y3Z3 1-626); assay: fluorescence anisotropy
SAMHD1 WT [2] = target: T1, SAMHD1 WT; assay: fluorescence anisotropy; remark: listed apart in the source
[3] = target: T2, SAMHD1 113-626 (HD domain) (Homo sapiens, UniProt Q9Y3Z3 113-626); assay: crystal structure
[4] = target: T2, SAMHD1 113-626 (HD domain); assay: crystal structure; remark: listed apart in the source
SAMHD1 113-626 R451E = SAMHD1 113-626 R451E (Homo sapiens, UniProt Q9Y3Z3 113-626, R451E); assay: fluorescence anisotropy
Sequence of SAMHD1 113-626 R451E (Q9Y3Z3 113-626 R451E): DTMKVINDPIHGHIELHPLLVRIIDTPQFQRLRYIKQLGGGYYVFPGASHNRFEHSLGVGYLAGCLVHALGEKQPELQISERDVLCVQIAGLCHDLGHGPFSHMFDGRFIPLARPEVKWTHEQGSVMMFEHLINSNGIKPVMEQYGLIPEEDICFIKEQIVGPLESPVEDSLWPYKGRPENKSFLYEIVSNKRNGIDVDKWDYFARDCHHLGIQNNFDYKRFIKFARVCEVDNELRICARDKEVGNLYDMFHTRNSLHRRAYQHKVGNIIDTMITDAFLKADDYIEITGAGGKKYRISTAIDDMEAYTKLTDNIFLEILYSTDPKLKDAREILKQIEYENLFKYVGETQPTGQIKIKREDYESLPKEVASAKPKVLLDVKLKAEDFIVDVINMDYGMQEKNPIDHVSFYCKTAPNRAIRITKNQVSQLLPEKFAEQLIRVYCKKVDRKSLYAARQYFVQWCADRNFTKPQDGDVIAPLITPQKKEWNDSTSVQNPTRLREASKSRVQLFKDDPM

SAMHD1 C522A = SAMHD1 C522A (Homo sapiens, UniProt Q9Y3Z3 1-626, C522A); assay: fluorescence anisotropy
Sequence of SAMHD1 C522A (Q9Y3Z3 whole entry C522A): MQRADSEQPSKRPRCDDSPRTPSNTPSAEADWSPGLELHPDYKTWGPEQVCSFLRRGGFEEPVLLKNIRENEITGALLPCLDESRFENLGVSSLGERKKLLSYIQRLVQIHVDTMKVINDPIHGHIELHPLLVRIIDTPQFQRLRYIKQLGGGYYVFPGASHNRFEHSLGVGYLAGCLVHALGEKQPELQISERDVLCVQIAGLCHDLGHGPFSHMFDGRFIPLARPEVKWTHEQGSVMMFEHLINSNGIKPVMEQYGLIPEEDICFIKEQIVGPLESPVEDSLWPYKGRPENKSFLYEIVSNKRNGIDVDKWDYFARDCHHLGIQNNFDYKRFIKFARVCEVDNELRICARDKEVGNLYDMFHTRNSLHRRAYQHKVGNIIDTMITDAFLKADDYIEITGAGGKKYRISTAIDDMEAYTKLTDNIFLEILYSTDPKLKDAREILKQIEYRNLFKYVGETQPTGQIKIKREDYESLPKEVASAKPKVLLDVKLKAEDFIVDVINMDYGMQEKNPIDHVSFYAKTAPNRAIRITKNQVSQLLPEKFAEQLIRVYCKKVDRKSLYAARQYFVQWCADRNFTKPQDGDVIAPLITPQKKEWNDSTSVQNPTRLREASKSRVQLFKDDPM

T1 sequence (Q9Y3Z3 whole entry): as the sequence (Q9Y3Z3 whole entry C522A) above, with A522C counted along it
T2 sequence (Q9Y3Z3 113-626): as the sequence (Q9Y3Z3 113-626 R451E) above, with E339R counted along it

B1: 3' overhang (mixed)
DNA 1: TGGAGAATCCCGGTGCCGAGGCCGCTCAATTGGTCGTAGACAGCTCTAGCACCGCTT
DNA 2: TGAGCGGCCTCGGCACCGGGATTCTCCA
binding result (SAMHD1 WT [1]): binds

B2: 3' fork (mixed)
DNA 1: B1 DNA 1
DNA 2: AATTGTGAGCGGCCTCGGCACCGGGATTCTCCA
binding result (SAMHD1 WT [2]): binds

B3: CATGT 5mer (ssDNA)
DNA: CATGT
binding result [3]: binds

B4: CATTG 5mer (ssDNA)
DNA: CATTG
binding result [4]: binds

B5: ssDNA 30mer (ssDNA)
DNA: GACAGTGTTGAGACAGGACCAGACAGGTAG
binding result (SAMHD1 113-626 R451E): no binding

B6: dsDNA 30mer (dsDNA)
DNA 1: B5 DNA
DNA 2: CTACCTGTCTGGTCCTGTCTCAACACTGTC
binding result (SAMHD1 C522A): no binding
